Numbering of substitutions follows the chain as printed. Names may count otherwise. “Also recorded” adds a separate entry of the source.
B1: TRAIL.R1-4: 6His TRAIL 95-281 with 199Val, 201Arg, 213Trp and 215Asp (protein)
chain: TSEETISTVQEKQQNISPLVRERGPQRVAAHITGTRGRSNTLSSPNSKNEKALGRKINSWESSRSGHSFLSNLHLRNGELVIHEKGFYYIYSQTYFRFQEEIKEVTRNDKQMVQYIYKWTDYPDPILLMKSARNSCWSKDAEYGLYSIYQGGIFELKENDRIFVSVTNEHLIDMDHEASFFGAFLVG
B2: TRAIL.R1-5a: His-TRAIL (95-281) with 189Ala, 199Val, 201Arg, 213Trp, 215Asp (protein)
chain: B1 chain with Y95A
B3: TRAIL.R1-2: His-TRAIL (95-281) with 213Trp and 215Asp (Y213W;S215D) (protein)
chain: B1 chain with V105N, R107K
B4: TRAIL.R1-6: His-TRAIL (95-281) with 189Ala, 193Ser, 199Val, 201Arg, 213Trp, 215Asp; proposed TRAIL-R1 selective mutant of Kelley et al. (protein)
chain: B1 chain with Y95A, Q99S
modifications: biotin (site not stated) in the DISC analysis only; not biotinylated in the apoptosis assays
B5: TRAIL.R1-1: His-TRAIL (95-281) with single substitution Tyr189Ala (protein)
chain: B1 chain with Y95A, V105N, R107K, W119Y, D121S
B6: TRAIL N199V: Asn199Val single mutant of His-TRAIL (protein)
chain: B1 chain with R107K, W119Y, D121S
B7: TRAIL R191L: Arg191Leu single mutant of His-TRAIL (protein)
chain: B1 chain with R97L, V105N, R107K, W119Y, D121S

These molecules were tested on Ramos cells (assay: Apoptosis by phosphatidylserine (PS) externalization in Ramos cells). Settings: 4 h exposure, 500 ng ml^−, Mean ± SEM of at least three determinations.
Type: cell-based
Procedure: (§1) Cells were also exposed to HGS-ETR1 or HGSETR2 (1 μg ml^−1). C: Ramos or Jurkat cells were pre-incubated for 30 min either alone or with TRAIL-R1 blocking Ab or TRAIL-R2 neutralizing Ab (5 μg ml^−1). […] D: Ramos and Jurkat cells were exposed to wt TRAIL or TRAIL mutants as described above and processing of caspase-3 and -8 determined by Western blot analysis. The asterisk indicates a non-specific band. The lower panel of the blot for detection of the caspase-8 p18 subunit was exposed for twice as long as the upper panel. Apoptosis was assessed by phosphatidylserine externalization and results expressed as the Means±SEM of at least 3 separate determinations.
(§2) Ramos, an Epstein-Barr virus-negative Burkitt's lymphoma cell line, and Jurkat T cells (clone E6-1) were cultured as described (MacFarlane et al (2005 Cell Death and Differentiation vol 12 pages 773-782)). Blood samples were obtained from CLL patients, with patient consent and local ethical committee approval and CLL cells purified as described (MacFarlane et al (2002 Oncogene 21, 6809-6818). Cells were incubated for 16 h with depsipeptide (10 nM), provided by Dr. E. Sausville (NCI, USA). Cells were then cultured for a further 6 h with either HGSETR1 or HGS-ETR2, agonistic mAbs to TRAIL-R1 or -R2, respectively (Human Genome Sciences, Rockville, Md.), His-TRAIL-LE (a recombinant TRAIL with low endotoxin—Alexis Corporation, Nottingham, UK), His-TRAIL, a similar form of human recombinant TRAIL (MacFarlane et al (1997 J Biol Chem 272, 25417-25420)) but not further purified to reduce endotoxin levels or a mutant form of His-TRAIL as described (MacFarlane et al., 2005 ibid.). Cell lines were also pre-incubated for 30 min with a TRAIL-R1 blocking Ab and a TRAIL-R2 neutralizing Ab from Alexis and R&D systems, respectively, prior to exposure to TRAIL. Freshly isolated cells from patients with MCL were isolated, purified and incubated with different forms of TRAIL as described above for CLL cells. Samples were either analyzed immediately for apoptosis or stored at −80° C. for subsequent Western blotting. Other methods and reagents were as described (Inoue (2004 Cell Death Differ 11 Suppl 2, S193-206); MacFarlane et al., 2005 ibid).
(§3) Apoptosis was quantified by phosphatidylserine (PS) externalization in the presence of propidium iodide as described (MacFarlane et al., 2002 ibid.). Samples for Western blot analysis were prepared and caspase processing detected as described (Inoue et al., 2004 ibid.; MacFarlane et al., 2005 ibid.).
Ramos and Jurkat T cells (clone E6-1) were cultured as described (MacFarlane et al, 2005 ibid.). The breast tumour cell line, MCF-7 (clone F43) was cultured as described previously (MacFarlane et al., 2000 J. Cell Biol. 148, 1239-1254). Cells were cultured for either 4 h (Ramos and Jurkat) or 6 h (MCF-7) with His-TRAIL (MacFarlane et al, 1997 J Biol Chem 272, 25417-25420), HGS-ETR1 or HGS-ETR2 (Human Genome Sciences), or a mutant form of His-TRAIL (MacFarlane et al, 2005 ibid.). Samples were analyzed for apoptosis, Western blotting, or TRAIL DISC activation as described (MacFarlane et al, 2005 ibid.; MacFarlane et al. 2002 Oncogene 21, 6809-6818). Mutants of His-TRAIL (residues 95-281) were generated using the Quik-Change site-directed mutagenesis kit (Stratagene, Calif.), confirmed by DNA sequencing, expressed in E. coli and purified as described (MacFarlane et al, 1997 ibid.). For siRNA targeting of TRAIL-R1/-R2, MCF-7 cells were seeded into six-well plates immediately prior to effectene-mediated RNAi transfection with either a negative control siRNA (30 nM, Ambion, #4611), or preannealed siRNA oligonucleotides for TRAIL-R1 or TRAIL-R2 (30 nM, Ambion), with the sequence and validity described (Ren et al, 2004 Mol. Biol. Cell vol 15 pp 5064-5074). After 40 h of transfection the cells were collected and total TRAIL-R1 or TRAIL-R2 levels assessed. […]

| Molecule | % PS+ cells, Ramos |
| --- | --- |
| B1 | 43.5 ± 2.5% |
| B2 | 18.9 ± 0.7% |
| B3 | 42.2 ± 3.1% |
| B4 | 13.7 ± 1.3% |
| B5 | 30.6 ± 2.9% |

Same assay, conditions: PS externalization, compared with wt TRAIL

| Molecule | ability to induce apoptosis in Ramos cells (in words) |
| --- | --- |
| B1 | retained the activity of wt TRAIL |
| B2 | markedly diminished activity |
| B3 | very similar activity to wt TRAIL |
| B4 | largely inactive |
| B5 | decreased ability to induce apoptosis |

Each molecule was assayed on Jurkat cells (assay: Apoptosis by phosphatidylserine (PS) externalization in Jurkat cells). Settings: 4 h exposure, 500 ng ml^−, Mean ± SEM of at least three determinations.
Type: cell-based
Procedure: as §1, with “determinations. […]” for “determinations.”
as §3
Ramos and Jurkat T cells (clone E6-1) were cultured as described (MacFarlane et al, 2005 ibid.). The breast tumour cell line, MCF-7 (clone F43) was cultured as described previously (MacFarlane et al., 2000 J. Cell Biol. 148, 1239-1254). Cells were cultured for either 4 h (Ramos and Jurkat) or 6 h (MCF-7) with His-TRAIL (MacFarlane et al, 1997 J Biol Chem 272, 25417-25420), HGS-ETR1 or HGS-ETR2 (Human Genome Sciences), or a mutant form of His-TRAIL (MacFarlane et al, 2005 ibid.). Samples were analyzed for apoptosis, Western blotting, or TRAIL DISC activation as described (MacFarlane et al, 2005 ibid.; MacFarlane et al. 2002 Oncogene 21, 6809-6818). Mutants of His-TRAIL (residues 95-281) were generated using the Quik-Change site-directed mutagenesis kit (Stratagene, Calif.), confirmed by DNA sequencing, expressed in E. coli and purified as described (MacFarlane et al, 1997 ibid.). For siRNA targeting of TRAIL-R1/-R2, MCF-7 cells were seeded into six-well plates immediately prior to effectene-mediated RNAi transfection with either a negative control siRNA (30 nM, Ambion, #4611), or preannealed siRNA oligonucleotides for TRAIL-R1 or TRAIL-R2 (30 nM, Ambion), with the sequence and validity described (Ren et al, 2004 Mol. Biol. Cell vol 15 pp 5064-5074). After 40 h of transfection the cells were collected and total TRAIL-R1 or TRAIL-R2 levels assessed. Where indicated, RNAi transfected MCF-7 cells were either left untreated or exposed to wt-TRAIL and apoptosis assessed by the extent of Bax activation, determined using the conformation specific Bax MAb, clone 3 (Dewson et al, 2003 Oncogene vol 22 pp 2643-54).

| Molecule | % PS+ cells, Jurkat |
| --- | --- |
| B1 | 25.0 ± 2.6% |
| B2 | 6.6 ± 0.4% |
| B3 | 46.6 ± 3.1% |
| B4 | 6.4 ± 0.8% |
| B5 | 24.9 ± 2.2% |

Same assay, conditions: PS externalization, compared with wt TRAIL

| Molecule | ability to induce apoptosis in Jurkat cells (in words) |
| --- | --- |
| B1 | decreased activity; also recorded: lost some activity |
| B2 | complete inactivity |
| B3 | very similar activity to wt TRAIL |
| B4 | inactive |
| B5 | decreased ability to induce apoptosis |

These molecules were tested on TRAIL DISC in Ramos cells (assay: DISC analysis with biotinylated TRAIL in Ramos cells). Settings: biotinylated ligand 500 ng ml^−1, 30 min.
Type: cell-based
Procedure: (§4) After exposure of the cells for 30 min, DISC complexes were isolated and analyzed for the indicated proteins by Western blotting. To provide an unstimulated receptor control (u/s), biotinylated wt or mutant TRAIL was added to lysate from untreated cells. C: Freshly isolated cells from patients with CLL were incubated for 16 h either alone or in the presence of depsipeptide (10 nM). […] The different symbols used indicate data from six individual patients and the solid line indicates the Mean.
(§5) Ramos or Jurkat cells (5×10^7 cells per treatment) were exposed to biotin-tagged recombinant His-TRAIL (biotinylated TRAIL) or one of its mutant forms (500 ng ml^−1) for 30 min and then DISC formation assessed as described previously (MacFarlane et al., 2002 ibid.).

| Molecule | DISC formation: receptor bound, FADD and caspase-8 recruitment |
| --- | --- |
| B4 | failed to recruit FADD or caspase-8 to the DISC |

The molecules below were run on TRAIL DISC in Jurkat cells (assay: DISC analysis with biotinylated TRAIL in Jurkat cells). Settings: biotinylated ligand 500 ng ml^−1, 30 min.
Type: cell-based
Procedure: as §4, §5

| Molecule | DISC formation: receptor bound, FADD and caspase-8 recruitment |
| --- | --- |
| B4 | bound neither TRAIL-R1 nor -R2 |

Each molecule was assayed against T1, TRAIL-R1 (DR4) (Homo sapiens, UniProt O00220) (assay: TRAIL-R1 selective apoptotic signalling (Ramos versus Jurkat cells)). Settings: from apoptosis in Ramos (TRAIL-R1) and Jurkat (TRAIL-R2) cells.
T1 construct: Ramos and Jurkat cells, which signal predominantly through TRAIL-R1 and TRAIL-R2, respectively; endogenous in cells; host or cells: Ramos cells (Jurkat cells as TRAIL-R2 comparison)
Type: cell-based
Excerpt: Another test involves the assay of the effect in R1- (DR4-) only cells. This is the preferred test for DR4 selectivity as discussed herein. Preferably the ligand is applied to an R1-only signalling cell. Preferably the cell is a Ramos cell. Preferably the read-out is functional activity, preferably death-inducing activity (apoptosis). This is crucial to the test—mere binding is not as robust an indicator as functional induction of death. Thus, preferably a DR4 selective ligand according to the present invention induces death in a DR4 only signalling cell, such as a Ramos cell.
as §2, §3
Referring to FIG. 4: Ramos cells (A) and Jurkat cells (B) were cultured with increasing concentrations of Arg191Leu or Asn199Val single mutants of His-TRAIL ([…]) or His-TRAIL (500 ng/ml), ETR1 or ETR2 (1000 ng/ml) for 4 h. Apoptosis was quantified by measuring the % PS+ cells and results shown in FIG. 4 are the Mean±SEM of three independent experiments. Thus the biological importance TRAIL residues R191 and N199 in TRAIL-R1 selectivity is shown.

| Molecule | receptor selectivity of apoptotic activity (in words) |
| --- | --- |
| B1 | good R1 selective activity; also recorded: a degree of selectivity for TRAIL-R1 |
| B6 | TRAIL-R1 selective |
| B7 | TRAIL-R1 selective |
| B3 | neither specific for TRAIL-R1 nor R2; also recorded: did not show any differential effects |

Source: patent publication US20090325867A1, “RECEPTOR-SPECIFIC TUMOUR NECROSIS FACTOR-RELATED APOPTOSIS-INDUCING LIGAND (TRAIL) VARIANTS” (MEDICAL RESEARCH COUNCIL, priority 2005, published 2009)
